substrate: O=CC(O)COP(=O)(O)O; test: coupled assay with alpha-glycerophosphate dehydrogenase, NADH consumption; type: biochemical, Arabidopsis thaliana; conditions: pH 7.8, 30°C, 100 mM Tris-Cl, 5 mM DTT, GAP 0-4 mM (from DL-GAP)
Text: coupled assay with alpha-glycerophosphate dehydrogenase, NADH consumption on cTPI (cytosolic triosephosphate isomerase)

Protein	Km	kcat	kcat/Km
cTPI (cytosolic triosephosphate isomerase) (Arabidopsis thaliana) (protein, tag removal not mentioned) MARKFFVGGNWKCNGTAEEVKKIVNTLNEAQVPSQDVVEVVVSPPYVFLPLVKSTLRSDFFVAAQNCWVKKGGAFTGEVSAEMLVNLDIPWVILGHSERRAILNESSEFVGDKVAYALAQGLKVIACVGETLEEREAGSTMDVVAAQTKAIADRVTNWSNVVIAYEPVWAIGTGKVASPAQAQEVHDELRKWLAKNVSADVAATTRIIYGGSVNGGNCKELGGQADVDGFLVGGASLKPEFIDIIKAAEVKKSA	1320 ± 60 µM	3410 ± 269 s⁻¹	2.58e+06 ± 321000 M⁻¹ s⁻¹
cTPI (cytosolic triosephosphate isomerase) (Arabidopsis thaliana; C127S) (protein, tag removal not mentioned) MARKFFVGGNWKCNGTAEEVKKIVNTLNEAQVPSQDVVEVVVSPPYVFLPLVKSTLRSDFFVAAQNCWVKKGGAFTGEVSAEMLVNLDIPWVILGHSERRAILNESSEFVGDKVAYALAQGLKVIASVGETLEEREAGSTMDVVAAQTKAIADRVTNWSNVVIAYEPVWAIGTGKVASPAQAQEVHDELRKWLAKNVSADVAATTRIIYGGSVNGGNCKELGGQADVDGFLVGGASLKPEFIDIIKAAEVKKSA	480 ± 40 µM	70.4 ± 7.4 s⁻¹	147000 ± 28000 M⁻¹ s⁻¹
cTPI (cytosolic triosephosphate isomerase) (Arabidopsis thaliana; C218S) (protein, tag removal not mentioned) MARKFFVGGNWKCNGTAEEVKKIVNTLNEAQVPSQDVVEVVVSPPYVFLPLVKSTLRSDFFVAAQNCWVKKGGAFTGEVSAEMLVNLDIPWVILGHSERRAILNESSEFVGDKVAYALAQGLKVIACVGETLEEREAGSTMDVVAAQTKAIADRVTNWSNVVIAYEPVWAIGTGKVASPAQAQEVHDELRKWLAKNVSADVAATTRIIYGGSVNGGNSKELGGQADVDGFLVGGASLKPEFIDIIKAAEVKKSA	1680 ± 30 µM	2690 ± 73 s⁻¹	1.6e+06 ± 72000 M⁻¹ s⁻¹
cTPI (cytosolic triosephosphate isomerase) (Arabidopsis thaliana; C127S/C218S) (protein, tag removal not mentioned) MARKFFVGGNWKCNGTAEEVKKIVNTLNEAQVPSQDVVEVVVSPPYVFLPLVKSTLRSDFFVAAQNCWVKKGGAFTGEVSAEMLVNLDIPWVILGHSERRAILNESSEFVGDKVAYALAQGLKVIASVGETLEEREAGSTMDVVAAQTKAIADRVTNWSNVVIAYEPVWAIGTGKVASPAQAQEVHDELRKWLAKNVSADVAATTRIIYGGSVNGGNSKELGGQADVDGFLVGGASLKPEFIDIIKAAEVKKSA	500 ± 60 µM	14.8 ± 0.8 s⁻¹	29600 ± 5200 M⁻¹ s⁻¹

From article PMC5177656, “Cytosolic Triosephosphate Isomerase from Arabidopsis thaliana Is Reversibly Modified by Glutathione on Cysteines 127 and 218” (Frontiers in Plant Science, 2016)
